According to article PMC2940226 (Neurobiology of disease, 2010):

Molecular target: GABAA receptor γ2 subunit (rat (endogenous in hippocampus), UniProt P18508 39-466)
Test: co-IP

Chain of GABAA receptor γ2 subunit (P18508 39-466): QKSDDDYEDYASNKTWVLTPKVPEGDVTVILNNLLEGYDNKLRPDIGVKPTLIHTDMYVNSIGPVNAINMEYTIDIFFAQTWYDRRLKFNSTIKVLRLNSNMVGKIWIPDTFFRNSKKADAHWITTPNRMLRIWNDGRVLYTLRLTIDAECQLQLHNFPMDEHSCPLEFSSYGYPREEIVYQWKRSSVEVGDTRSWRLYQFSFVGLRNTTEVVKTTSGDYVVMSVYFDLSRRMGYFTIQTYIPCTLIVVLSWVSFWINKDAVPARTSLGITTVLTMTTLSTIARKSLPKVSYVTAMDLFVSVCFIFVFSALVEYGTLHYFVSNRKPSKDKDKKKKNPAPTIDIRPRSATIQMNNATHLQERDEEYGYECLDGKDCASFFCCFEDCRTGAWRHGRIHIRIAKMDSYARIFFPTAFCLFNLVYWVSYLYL

ratio of the α4-γ2 co-precipitation (normalised α4 to γ2), control animals: 0.55 ± 0.02 | ratio of the α4-γ2 co-precipitation (normalised α4 to γ2), epileptic animals: 1.12 ± 0.24
B1: GABAA receptor α4 subunit (natural protein, rat (endogenous in hippocampus), UniProt P28471 36-552, looked up)
chain: QNSKDEKLCPENFTRILDSLLDGYDNRLRPGFGGPVTEVKTDIYVTSFGPVSDVEMEYTMDVFFRQTWIDKRLKYDGPIEILRLNNMMVTKVWTPDTFFRNGKKSVSHNMTAPNKLFRIMRNGTILYTMRLTISAECPMRLVDFPMDGHACPLKFGSYAYPKSEMIYTWTKGPEKSVEVPKESSSLVQYDLIGQTVSSETIKSITGEYIVMTVYFHLRRKMGYFMIQTYIPCIMTVILSQVSFWINKESVPARTVFGITTVLTMTTLSISARHSLPKVSYATAMDWFIAVCFAFVFSALIEFAAVNYFTNIQMQKAKKKISKPPPEVPAAPVLKEKHTETSLQNTHANLNMRKRTNALVHSESDVNSRTEVGNHSSKTTAAQESSETTPKAHLASSPNPFSRANAAETISAAARGLSSAASPSPHGTLQPAPLRSASARPAFGARLGRIKTTVNTTGVPGNVSATPPPSAPPPSGSGTSKIDKYARILFPVTFGAFNMVYWVVYLSKDTMEKSESLM
